In paper PMC10385375, “In Situ Monitoring of Aptamer–Protein Binding on a ZnO Surface Using Spectroscopic Ellipsometry”:

Target: SARS-CoV-2 spike protein (SARS-CoV-2, UniProt P0DTC2)
Experiment: spectroscopic ellipsometry, immobilised aptamer; PBS (137 mM NaCl, 2.7 mM KCl, 10 mM phosphate, pH 7.4); […]
Settings: protein: commercial; chain copies: 3

B1: spike aptamer (ssDNA)
DNA: CAGCACCGACCTTGTGCTTTGGGAGTGCTGGTCCAAGGGCGTTAATGGACA
modifications: 5' amine
  binding result: binds
